According to the domain aggregation screens of Martell et al. (2025):

assay: soluble fraction after stress (log2 fold change); higher = more stays soluble; pooled small domains, quantitative proteomics; details: stress: 50 degC
Summary of the method: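 The stress applied to every library was 50°C. These custom libraries of small protein domains were pooled and measured at high throughput with quantitative proteomics as the read-out. Aggregation propensity is expressed as the base-two logarithm of the fold change in how much of each protein remains soluble. The higher the value, the more of that protein stays in solution.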

| Sequence | soluble fraction (log2) |
| --- | --- |
| HMTKLPLLVELSRIIPTDTWVKKIKFSLGSVEFVGISKSASRLLPIVENSSYFHDTKFIGTIVT | -0.486 |
| HMEIDMQEGIKTIILMMKEHNITPSEAMKIYKSANGDIHYISKIYNHFKNKGADNFVALMIKMVKPGEFIE | -0.00191 |
| HMISESIPAKDALLRLLNTAYQTRTNAAGEFYFNDVPPGKYILQASVNDVEIIRENISINEN | -0.249 |
| HMPDLSMLDEVLDEYRSQAGSLVTVLQKAQDLYGYLPLTILRHIAEEMNIKPAQVYGVATFYTQFRL | -0.0547 |
| HMKPQIRRHEKITALVREHGFMSVEQLARELEVTPQTIRRDIGILSAENVLRRYHGGAALGD | -0.586 |
| HMDAPLIIAETRVDVPDATVSDAVMMLDLRNTNALLFKNSGSGVLNMVYRRGDGTIGWGEPQ | -0.0172 |
| HMGGAVQIAEQIAARIKDGALRPGELLPPVRQLAAELEVNPNTVASAYARLRDAGLVATRGRAGTVVLEPP | -0.172 |
| HMGVMNEYEELRDRYLTGQIWKIGDLVEAKGIEGKIIQRGTNYITFNDSQGKVHKAWLHEIKV | 0.184 |
| HMLDLPEISARIMEVFETKDRATISELSKLTGTNINTIKKHLSSLVENNYLIKHGKTRGAWYTKST | -0.104 |
| HMAKMPSIIIMKDGVIRTSELEQIERDENWLNEEMKKQHIDNPEDVFLAEFWDGKVNFILQDGKIK | 0.0716 |
| HMNMVEESVKKSSQWAVFEPNTISTWVKIQAMIENYLYQKWKEGALAGAKPEHAFFVKVGLGETM | 0.163 |
| HMDYKAELDNIIRDHLDMEGPLLPVLHAVMARFSYIPKDAIPIIARKLNLSSAEVSGVISFYHDFKKEK | -0.561 |
| HMSSRSLTYSDFIERVDAGQVDAVTLDGERIVIRAKDGNTYVAIKPQGEDVTGSLTRDLIAKGVDVEAEPQ | 0.0928 |
| HMTSTEQEILIEHMVDRLPALRKKYGISQTELGEKIGLSRQTISAIERKTTPLTWTTMLAILMFFT | -1.7 |
| HMSDTSELESIIAQIIEDNPKSIEDIGAGNQKAYGFLTGQVMKATKGQANPQVANKIIRELVARKLE | 0.575 |
| HMHPTDMKLTARLEEGAQFVRTQQLSKAIEIFTEVIKLDQNWAEAWNKRATVFYMMGKFKQSQEDIDKVLA | -0.0571 |
| HMPELPEVETSRRGIEPHLVGATILHAVVRNGRLRWPVSEEIYRLSDQPVLSVQRRAKYLLLELQA | 0.0555 |
| HMFRSTLEELKHQISGFLKANQSQEFTAQNLADGLRMTSIAEYKRVVNAMDALVRDGELTFDAGKYQYNPN | -0.279 |
| HMSLLQDRQRHEALAALGYYRGSVSAAWGAASVEALKAAQAALGVEVDGKWGPKTEDVIQAALGT | -0.00704 |

| Sequence | soluble fraction (log2) |
| --- | --- |
| HMDGLIRLNKLLATLGVESRRHAEEMIIAGRITVDGVTATEKGQKVRRGAVIKVDGVEVGPPP | -0.121 |
| HMVITDPFFLEPENLVKDAVALMEKYRISGVPITKKGKLVGILTNRDLRFESNYEQPIANVMS | -0.0305 |
| HMGPVALGVTDGATYFSSVTITFRRGTAVLDGEPIASGHTVYKSGAHSLTLTAGGKTRTIAFTMDT | -4.23 |
| HMESRLQAAIALRKAGEHEQSREALKILADEPALRAQALLNIAWSFDNQGHERDAEGYYLAAIE | -0.131 |
| HMGSEGVKVEDTIGMSEAEATATLGKSGFVVNKTESHDPYIKAGNVITQSPAAGSKAPKGTTVTLTISLGP | 0.131 |
| HMAKIEVENLEETILENLKANNGFMPYNDKTSPEEIYEVFHVSKKHFKNSLGGLMKKGLIFQNEKGTKL | -0.0312 |
| HMYEGLPVTLIIDGRVIEANLAKANRDMAWLERELANSGVRSHHDVFFATLDSRGQLYYQVKN | -0.143 |
| HMDIEVEVPNLVGMSLDEAKSIIQSMGLVVGLTIEDPSAKVSDNSVTKQKPTYQTGVKLRSGDMIDIWYAG | -0.102 |
| HMEVPVQYIKFKIPENHFWAKKKVADIILPPETLLVLLQRGSDKMIPDGETVLLPEDTLVLIAKAPG | -0.0836 |
| HMSVLSEQIKEQLMEDIFHKKYKAGDRIVESALARELGVSQASVREALRSLIAMGFLENEPFKGITVR | 0.0703 |
| HMEETLRELAVKISKQVIKTGRNSVLEPMNPYERRIIHAVISEIEGVSSKSVGEDPNRKVVIMSTNP | -0.126 |
| HMNNEISINGNKIYFNKNISKVFIYDISGKLIKHKNNFNNNFIDLSEFNSAFYIIKALDINENYTTKKIFL | -1.58 |
| HMKGPAFAKIDLTQLPAGLTSFLNTNAAGFKLDYAVAITKDSVIIEYHVGVTIGTAKKEFHLDPNFQLLP | -0.36 |
| HMAPGSKAEIPEDLMKVINKDPKMKAFVATLNKANIMAISFRLSTAKKPETRERRFNLILETLKRGEKF | -3.18 |
| HMFLPFFDNLRKAGVPVSLREFLGFLEGMKAGLATYDIDAFYFLARTTMVKDERNLDKFDRAFSATFKG | -0.563 |
| HMVAFYATPKERGIYDDAETYREGDIVSIADGSRWIYVNPTATAGNDPADGSVYWERMSGAATGP | 0.0147 |
| HMNEDYSSMVGKTGFALTILRPAGKIMIEEEVFDAVAINGYISKGQEVEVVRYENAQLYVKVK | -0.386 |
| HMTMEFGEFLAKLRKERGYYQKEVAAYLNVTVATISNYEKNVHAPDLDTLVKLADFYDVSTDYLLQRT | -2.98 |
| HMDVLIQEIGKRLRIQRLAMGLTQEELAKRAGISLSTLKLMEQQGKGSLQRLAKVAVVLDLDGDLRGLF | -2.42 |
